According to patent US20090149389A1 (PURDUE RESEARCH FOUNDATION, published 2009):

Tests used:
Experiment in all cases: cell-based or functional assay
Flt3 (h) = molecular target: T1, Flt3 (h) (human (h), UniProt P36888 564-993, limits assumed)
T1 sequence (looked up): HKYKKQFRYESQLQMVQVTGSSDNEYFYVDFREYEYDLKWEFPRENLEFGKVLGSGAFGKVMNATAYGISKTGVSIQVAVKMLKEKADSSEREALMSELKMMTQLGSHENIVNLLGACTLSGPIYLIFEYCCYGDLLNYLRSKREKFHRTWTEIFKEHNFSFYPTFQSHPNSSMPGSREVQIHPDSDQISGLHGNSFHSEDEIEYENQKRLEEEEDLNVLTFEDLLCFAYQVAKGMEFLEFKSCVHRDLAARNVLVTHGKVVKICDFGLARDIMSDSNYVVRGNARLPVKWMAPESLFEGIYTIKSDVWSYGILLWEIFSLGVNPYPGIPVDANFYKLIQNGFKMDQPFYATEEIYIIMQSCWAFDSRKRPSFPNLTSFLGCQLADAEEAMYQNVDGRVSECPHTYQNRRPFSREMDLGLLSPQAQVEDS

MKK4 (m) = molecular target: T2, MKK4 (m) (mouse (m), UniProt P47809 35-397, limits assumed)
T2 sequence (looked up): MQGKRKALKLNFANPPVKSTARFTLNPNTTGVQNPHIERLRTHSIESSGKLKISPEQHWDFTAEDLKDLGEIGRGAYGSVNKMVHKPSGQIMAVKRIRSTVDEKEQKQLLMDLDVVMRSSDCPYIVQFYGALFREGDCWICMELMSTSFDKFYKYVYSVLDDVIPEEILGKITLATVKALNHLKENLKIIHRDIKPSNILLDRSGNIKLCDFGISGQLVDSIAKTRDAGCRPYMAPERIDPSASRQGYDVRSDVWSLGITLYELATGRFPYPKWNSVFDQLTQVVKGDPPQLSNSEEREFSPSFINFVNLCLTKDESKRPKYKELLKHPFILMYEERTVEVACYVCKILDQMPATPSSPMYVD

CHK1 (h) = molecular target: T3, CHK1 (h) (human (h), UniProt O14757 1-476)
T3 sequence (looked up): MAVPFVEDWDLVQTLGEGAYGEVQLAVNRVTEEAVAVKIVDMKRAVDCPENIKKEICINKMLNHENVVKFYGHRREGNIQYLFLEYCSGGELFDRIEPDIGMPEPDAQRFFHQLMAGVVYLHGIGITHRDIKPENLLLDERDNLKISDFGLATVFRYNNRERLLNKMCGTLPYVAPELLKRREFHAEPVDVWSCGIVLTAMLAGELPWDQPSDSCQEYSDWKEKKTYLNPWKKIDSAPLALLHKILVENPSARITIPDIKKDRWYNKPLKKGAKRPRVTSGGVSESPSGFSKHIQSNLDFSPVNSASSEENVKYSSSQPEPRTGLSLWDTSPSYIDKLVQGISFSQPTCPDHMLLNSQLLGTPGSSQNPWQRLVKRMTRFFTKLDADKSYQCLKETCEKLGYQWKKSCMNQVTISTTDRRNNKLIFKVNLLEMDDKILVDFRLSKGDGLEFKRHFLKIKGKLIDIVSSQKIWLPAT

CaMKI (h) = CaMKI (h) (human (h), UniProt Q14012 1-370, limits assumed)
TrkA (h) = TrkA (h) (human (h), UniProt P04629 441-796, limits assumed)
PKA (h) = PKA (h) (human (h), UniProt P17612 1-351)
Syk (h) = Syk (h) (human (h), UniProt P43405 1-635)
FGFR1 (h) = FGFR1 (h) (human (h), UniProt P11362 456-765, limits assumed)
cKit (h) = cKit (h) (human (h), UniProt P10721 544-976, limits assumed)
KDR (tl) = KDR (tl) (UniProt P35968 790-1356, limits assumed)
Ret (h) = molecular target: T4, Ret (h) (human (h), UniProt P07949 658-1114, limits assumed)
T4 sequence (looked up): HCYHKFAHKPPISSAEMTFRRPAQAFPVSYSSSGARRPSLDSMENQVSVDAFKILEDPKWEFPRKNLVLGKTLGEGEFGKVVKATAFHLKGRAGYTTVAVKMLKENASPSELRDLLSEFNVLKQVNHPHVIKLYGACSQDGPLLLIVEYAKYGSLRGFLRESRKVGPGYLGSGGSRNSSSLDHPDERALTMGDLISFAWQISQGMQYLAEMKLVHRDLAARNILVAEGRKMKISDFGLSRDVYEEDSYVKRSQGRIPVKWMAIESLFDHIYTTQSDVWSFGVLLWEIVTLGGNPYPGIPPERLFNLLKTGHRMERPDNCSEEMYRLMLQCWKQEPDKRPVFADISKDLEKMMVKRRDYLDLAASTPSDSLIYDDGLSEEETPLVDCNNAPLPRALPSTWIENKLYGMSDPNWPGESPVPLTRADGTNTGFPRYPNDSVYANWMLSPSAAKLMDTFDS

PKCδ (h) = PKCδ (h) (human (h), UniProt Q05655 1-676)
MKK6 (h) = molecular target: T5, MKK6 (h) (human (h), UniProt P52564 1-334, limits assumed)
T5 sequence (looked up): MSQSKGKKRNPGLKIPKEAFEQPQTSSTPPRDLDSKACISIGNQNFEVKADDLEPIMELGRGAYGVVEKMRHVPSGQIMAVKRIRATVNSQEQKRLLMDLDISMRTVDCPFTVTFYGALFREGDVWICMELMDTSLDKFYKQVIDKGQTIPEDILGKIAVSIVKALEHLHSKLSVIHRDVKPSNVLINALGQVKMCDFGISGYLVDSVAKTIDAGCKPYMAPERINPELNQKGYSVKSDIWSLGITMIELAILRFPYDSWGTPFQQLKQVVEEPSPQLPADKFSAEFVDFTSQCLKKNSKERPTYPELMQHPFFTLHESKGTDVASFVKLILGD

ASK1 (h) = ASK1 (h) (human (h), UniProt Q99683 649-946, limits assumed)
Chain of ASK1 (h) (Q99683 649-946 limits assumed): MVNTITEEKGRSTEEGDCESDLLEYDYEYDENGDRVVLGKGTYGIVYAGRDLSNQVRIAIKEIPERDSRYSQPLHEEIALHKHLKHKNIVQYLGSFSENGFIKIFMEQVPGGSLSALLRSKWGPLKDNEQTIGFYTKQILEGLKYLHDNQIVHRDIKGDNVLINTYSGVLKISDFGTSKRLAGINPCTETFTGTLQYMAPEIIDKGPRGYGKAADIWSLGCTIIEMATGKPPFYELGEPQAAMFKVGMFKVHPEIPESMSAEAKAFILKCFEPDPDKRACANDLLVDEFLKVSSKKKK

Chain of CaMKI (h) (Q14012 whole entry): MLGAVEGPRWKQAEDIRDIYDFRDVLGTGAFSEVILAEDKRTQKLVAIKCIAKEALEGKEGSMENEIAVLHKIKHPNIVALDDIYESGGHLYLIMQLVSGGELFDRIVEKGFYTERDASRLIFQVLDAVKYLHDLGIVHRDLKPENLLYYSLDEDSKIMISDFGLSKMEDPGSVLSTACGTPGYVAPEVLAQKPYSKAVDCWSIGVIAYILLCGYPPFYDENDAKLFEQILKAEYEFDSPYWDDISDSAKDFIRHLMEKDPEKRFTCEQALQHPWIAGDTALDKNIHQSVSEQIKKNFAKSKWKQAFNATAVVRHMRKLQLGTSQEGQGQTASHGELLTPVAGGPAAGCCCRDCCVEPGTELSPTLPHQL
Chain of KDR (tl) (P35968 790-1356 limits assumed): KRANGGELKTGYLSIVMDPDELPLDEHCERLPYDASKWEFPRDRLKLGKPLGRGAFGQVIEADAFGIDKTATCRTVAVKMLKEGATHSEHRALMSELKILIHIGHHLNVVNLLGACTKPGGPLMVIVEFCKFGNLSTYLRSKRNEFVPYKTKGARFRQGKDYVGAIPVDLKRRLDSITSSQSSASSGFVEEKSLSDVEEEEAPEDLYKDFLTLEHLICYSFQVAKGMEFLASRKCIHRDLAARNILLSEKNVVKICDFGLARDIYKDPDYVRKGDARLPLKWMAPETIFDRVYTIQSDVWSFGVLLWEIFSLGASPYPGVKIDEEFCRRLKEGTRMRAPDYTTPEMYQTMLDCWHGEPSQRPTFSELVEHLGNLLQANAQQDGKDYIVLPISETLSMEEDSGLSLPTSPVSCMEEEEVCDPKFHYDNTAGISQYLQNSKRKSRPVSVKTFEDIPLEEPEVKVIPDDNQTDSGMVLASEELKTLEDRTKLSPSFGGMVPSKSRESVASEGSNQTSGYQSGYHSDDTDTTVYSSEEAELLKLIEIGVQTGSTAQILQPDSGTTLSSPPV
Chain of FGFR1 (h) (P11362 456-765 limits assumed): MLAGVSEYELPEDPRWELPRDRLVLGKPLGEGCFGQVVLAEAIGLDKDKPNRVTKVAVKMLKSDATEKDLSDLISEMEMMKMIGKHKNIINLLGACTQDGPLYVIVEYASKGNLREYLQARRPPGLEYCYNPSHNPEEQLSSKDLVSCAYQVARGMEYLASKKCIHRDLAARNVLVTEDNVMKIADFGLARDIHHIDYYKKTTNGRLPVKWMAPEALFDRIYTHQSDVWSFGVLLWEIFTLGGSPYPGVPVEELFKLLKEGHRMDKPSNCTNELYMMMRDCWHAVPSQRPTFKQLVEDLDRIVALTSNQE
Chain of TrkA (h) (P04629 441-796 limits assumed): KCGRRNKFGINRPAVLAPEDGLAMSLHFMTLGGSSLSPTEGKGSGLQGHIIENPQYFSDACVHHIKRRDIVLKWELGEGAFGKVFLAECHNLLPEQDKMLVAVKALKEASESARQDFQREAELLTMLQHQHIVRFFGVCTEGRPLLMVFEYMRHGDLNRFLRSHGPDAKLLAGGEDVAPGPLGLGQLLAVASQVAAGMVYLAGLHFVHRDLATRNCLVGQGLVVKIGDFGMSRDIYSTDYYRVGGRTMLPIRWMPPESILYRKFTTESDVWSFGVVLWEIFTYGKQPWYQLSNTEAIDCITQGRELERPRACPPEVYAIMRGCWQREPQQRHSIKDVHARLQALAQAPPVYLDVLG
Chain of PKCδ (h) (Q05655 whole entry, stated change not applied): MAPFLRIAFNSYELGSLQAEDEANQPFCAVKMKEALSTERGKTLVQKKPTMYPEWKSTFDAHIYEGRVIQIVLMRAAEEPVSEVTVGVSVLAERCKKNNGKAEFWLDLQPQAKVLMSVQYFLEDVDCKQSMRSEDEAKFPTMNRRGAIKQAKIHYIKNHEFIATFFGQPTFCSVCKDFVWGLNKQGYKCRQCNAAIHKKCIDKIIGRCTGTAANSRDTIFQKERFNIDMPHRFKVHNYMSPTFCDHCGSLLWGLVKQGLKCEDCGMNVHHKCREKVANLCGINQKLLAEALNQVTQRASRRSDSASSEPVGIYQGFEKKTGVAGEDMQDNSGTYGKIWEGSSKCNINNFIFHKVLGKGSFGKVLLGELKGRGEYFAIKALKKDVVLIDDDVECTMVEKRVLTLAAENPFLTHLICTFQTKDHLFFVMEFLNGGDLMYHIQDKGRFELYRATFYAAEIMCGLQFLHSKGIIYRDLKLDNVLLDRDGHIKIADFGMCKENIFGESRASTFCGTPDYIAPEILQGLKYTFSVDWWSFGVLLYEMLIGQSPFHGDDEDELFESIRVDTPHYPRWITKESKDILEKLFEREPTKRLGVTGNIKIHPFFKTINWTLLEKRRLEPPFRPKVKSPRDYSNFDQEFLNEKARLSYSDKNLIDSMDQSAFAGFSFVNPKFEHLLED
Chain of cKit (h) (P10721 544-976 limits assumed): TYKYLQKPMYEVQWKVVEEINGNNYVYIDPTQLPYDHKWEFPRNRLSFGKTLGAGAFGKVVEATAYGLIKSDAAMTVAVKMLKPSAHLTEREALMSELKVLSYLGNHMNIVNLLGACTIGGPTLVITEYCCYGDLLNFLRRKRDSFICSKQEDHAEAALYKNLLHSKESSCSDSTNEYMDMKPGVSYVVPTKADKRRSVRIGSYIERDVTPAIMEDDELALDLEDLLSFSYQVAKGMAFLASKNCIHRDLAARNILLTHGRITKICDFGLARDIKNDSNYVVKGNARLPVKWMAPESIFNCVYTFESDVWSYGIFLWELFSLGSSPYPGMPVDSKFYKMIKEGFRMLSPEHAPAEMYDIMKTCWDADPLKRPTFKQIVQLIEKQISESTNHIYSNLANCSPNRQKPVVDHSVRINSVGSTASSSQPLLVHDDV

Binder: FAKLAARLYRKALARQLGVAA
- Profile-1 @ = 100 µm (kinase profiler assay) (Flt3 (h)): 14
- Profile-1 @ = 100 µm (kinase profiler assay) (MKK4 (m)): 90
- Profile-1 @ = 100 µm (kinase profiler assay) (CHK1 (h)): 54
- Profile-1 @ = 100 µm (kinase profiler assay) (CaMKI (h)): 0
- Profile-1 @ = 100 µm (kinase profiler assay) (TrkA (h)): 17
- Profile-1 @ = 100 µm (kinase profiler assay) (PKA (h)): 76
- Profile-1 @ = 100 µm (kinase profiler assay) (Syk (h)): 38
- Profile-1 @ = 100 µm (kinase profiler assay) (FGFR1 (h)): 22
- Profile-1 @ = 100 µm (kinase profiler assay) (cKit (h)): 42
- Profile-1 @ = 100 µm (kinase profiler assay) (KDR (tl)): 78
- Profile-1 @ = 100 µm (kinase profiler assay) (Ret (h)): 89
- Profile-1 @ = 100 µm (kinase profiler assay) (PKCδ (h)): 40
- Profile-1 @ = 100 µm (kinase profiler assay) (MKK6 (h)): 42
- Profile-1 @ = 100 µm (kinase profiler assay) (ASK1 (h)): 53
